Assay results from the RNAGym collection of RNA variant scans (doi:10.1093/nar/gkz1192).

B1: CPEB3 Ribozyme (parent)
chain: UAACAGGGGGCCACAGCAGAAGCGUUCACGUCGCAGCCCCUGUCAGAUUCUGGUGAAUCUGCGAAUUCUGCUGUAUAUCUC

Variants of: B1
Assay: self-cleavage, relative activity (ratio to wild type); higher = more cleavage; in vitro, sequencing
Outline: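 Relative activity was defined as the cleaved/total read fraction for a variant divided by the same fraction for the unmutated ribozyme. CPEB3 self-cleaving ribozyme libraries were made by rounds of error-prone PCR, barcoded, and transcribed in vitro with T7 RNA polymerase for 5 hours at 37°C, and cleavage ran through transcription plus a 15 min DNase I step before EDTA. Illumina sequencing of template-switched reverse transcripts gave the reads, and DNA sequencing mapped the barcodes. Averages come from three batches, using variants with at least 5 reads.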
In the case of G42A C79U, the self-cleavage is reported as 0.36. With G42A C79A the self-cleavage was 0.33. G42A A47G showed a self-cleavage of 0.42. In the case of U41G U48C, the self-cleavage is reported as 0.36. Work on G42A C59G yielded a self-cleavage of 0.23. Work on U41G C71G yielded a self-cleavage of 0.33. With U41G C44A the self-cleavage was 0.13. U41G A65G showed a self-cleavage of 0.35. G42A showed a self-cleavage of 0.34. G42C showed a self-cleavage of 0.51. G42U gave a self-cleavage of 0.31. For U41G U60C, the self-cleavage was 0.18. With U41G U60A the self-cleavage was 0.16. For U41G U78C, the self-cleavage was 0.21. U41G U78A showed a self-cleavage of 0.26. In the case of U41G U78G, the self-cleavage is reported as 0.2. U41G U80C showed a self-cleavage of 0.29. U41G U80A showed a self-cleavage of 0.26. In the case of U41C U51G, the self-cleavage is reported as 0.81. U41C U51A showed a self-cleavage of 1.06. U41C U51C showed a self-cleavage of 1.08. Variant G42U U49C has a self-cleavage of 0.02. With U41C U58G the self-cleavage was 0.41. Variant U41C U58C has a self-cleavage of 0.58. U41C U58A gave a self-cleavage of 0.47. U41G U54C gave a self-cleavage of 0.38. Variant U41G U54G has a self-cleavage of 0.23. Work on U41G U58G yielded a self-cleavage of 0.16. In the case of U41G U58C, the self-cleavage is reported as 0.18. In the case of U41G U58A, the self-cleavage is reported as 0.33. In the case of G42A G53C, the self-cleavage is reported as 0.29. Variant G42C U60C has a self-cleavage of 0.24. G42U A75G showed a self-cleavage of 0.19. G42A U69A showed a self-cleavage of 0.08. With G42A A57G the self-cleavage was 0.16. Variant G42A A57U has a self-cleavage of 0.18. G42C U48A showed a self-cleavage of 0.13. G42U A77U showed a self-cleavage of 0.37. Variant G42A U54C has a self-cleavage of 0.57. Variant G42A U54A has a self-cleavage of 0.45. Work on G42A U72C yielded a self-cleavage of 0.37. With G42A U72A the self-cleavage was 0.18. U41G A56G showed a self-cleavage of 0.22. For U41G A56U, the self-cleavage was 0.25. G42A U66C gave a self-cleavage of 0.38. With U41C U67C the self-cleavage was 0.33. Work on U41C U67A yielded a self-cleavage of 0.53. U41C U67G showed a self-cleavage of 0.3. For G42A U67C, the self-cleavage was 0.21. Work on G42A U67A yielded a self-cleavage of 0.14. Variant U41G A47G has a self-cleavage of 0.37. G42C A57G showed a self-cleavage of 0.25. Variant U41C G73U has a self-cleavage of 1.28. U41C G73C showed a self-cleavage of 1.25. With G42U A64U the self-cleavage was 0.13. For U41C U74C, the self-cleavage was 1.23. U41C U74A showed a self-cleavage of 1.22. U41C U74G showed a self-cleavage of 1.21. With U41C U76A the self-cleavage was 1.17. In the case of U41C U76C, the self-cleavage is reported as 1.05. Work on U41C U76G yielded a self-cleavage of 1.05. U41G A75G showed a self-cleavage of 0.18. In the case of G42A A56U, the self-cleavage is reported as 0.28. With G42A A56G the self-cleavage was 0.16. Work on G42A G55U yielded a self-cleavage of 0.08. Variant G42A C81U has a self-cleavage of 0.4. G42A C81G gave a self-cleavage of 0.35. U41G U76C showed a self-cleavage of 0.27. Work on U41G U76A yielded a self-cleavage of 0.14. Variant U41G U67C has a self-cleavage of 0.17. Work on U41G U67A yielded a self-cleavage of 0.2. G42U G53A showed a self-cleavage of 0.31. In the case of G42U U60A, the self-cleavage is reported as 0.21. In the case of G42C U72C, the self-cleavage is reported as 0.21. G42A G70C gave a self-cleavage of 0.13. Variant G42A G70A has a self-cleavage of 0.19. With U41G the self-cleavage was 0.29. G42U U58A gave a self-cleavage of 0.11. For G42C U74C, the self-cleavage was 0.3. Variant G42U A47G has a self-cleavage of 0.18. U41G U51C gave a self-cleavage of 0.21. For U41G U51A, the self-cleavage was 0.37. U41G U51G gave a self-cleavage of 0.27. With U41G C81U the self-cleavage was 0.33. G42A A65U showed a self-cleavage of 0.3. G42A A65C showed a self-cleavage of 0.24. With G42A A65G the self-cleavage was 0.42. G42A U78C gave a self-cleavage of 0.21. In the case of U41G U49C, the self-cleavage is reported as 0.38. U41G A57C gave a self-cleavage of 0.11. Work on U41G A57G yielded a self-cleavage of 0.23. With G42A A75G the self-cleavage was 0.28. Variant U41G U66C has a self-cleavage of 0.2. Variant G42A C44G has a self-cleavage of 0.11. Variant G42A A77U has a self-cleavage of 0.39. For G42A U51C, the self-cleavage was 0.29. With G42A U48C the self-cleavage was 0.33. With G42A U43C the self-cleavage was 0.29. In the case of G42A U43G, the self-cleavage is reported as 0.32. Variant G42A A64U has a self-cleavage of 0.14. G42A A64G gave a self-cleavage of 0.21. For U41C U60C, the self-cleavage was 0.55. U41C U60G gave a self-cleavage of 0.42. For U41C U60A, the self-cleavage was 0.68. Variant G42C U43A has a self-cleavage of 0.33. In the case of G42C U43C, the self-cleavage is reported as 0.14. Work on U41G U72G yielded a self-cleavage of 0.41. U41G U72A showed a self-cleavage of 0.14. Work on U41G U72C yielded a self-cleavage of 0.35. With U41C U54G the self-cleavage was 0.88. U41C U54A gave a self-cleavage of 1.11. Variant U41C U54C has a self-cleavage of 1.03. Work on G42A U60A yielded a self-cleavage of 0.3. Variant G42A U60C has a self-cleavage of 0.34. With G42A U80A the self-cleavage was 0.79. With G42A U80C the self-cleavage was 0.36. U41C U80G showed a self-cleavage of 1.29. With U41C U80C the self-cleavage was 1.04. U41C U80A gave a self-cleavage of 1.15. Variant U41C U69C has a self-cleavage of 0.57. U41C U69A showed a self-cleavage of 0.67. Variant U41C U69G has a self-cleavage of 0.79. In the case of U41G U74C, the self-cleavage is reported as 0.35. Variant U41G U74A has a self-cleavage of 0.37. For U41C U43C, the self-cleavage was 0.46. U41C U43A showed a self-cleavage of 0.72. U41C U66A showed a self-cleavage of 0.62. For U41C U66C, the self-cleavage was 0.49. For U41C U66G, the self-cleavage was 0.58. G42A U74C gave a self-cleavage of 0.64. In the case of U41C U48A, the self-cleavage is reported as 0.6. In the case of U41C U48G, the self-cleavage is reported as 0.55. For U41C U48C, the self-cleavage was 0.71. In the case of U41G G52C, the self-cleavage is reported as 0.14. With U41G A77U the self-cleavage was 0.36. In the case of U41G A77G, the self-cleavage is reported as 0.2. With G42A U58C the self-cleavage was 0.25. G42A U58A showed a self-cleavage of 0.21. With G42A U76C the self-cleavage was 0.41. G42A U76G gave a self-cleavage of 0.26. G42U U43C showed a self-cleavage of 0.43. In the case of G42U U43A, the self-cleavage is reported as 0.54. Variant G42A A45G has a self-cleavage of 0.3. Work on G42A A45C yielded a self-cleavage of 0.32. For G42U A57G, the self-cleavage was 0.19. For U41C U72G, the self-cleavage was 0.92. U41C U72A showed a self-cleavage of 0.79. U41C U72C gave a self-cleavage of 1.11. Variant U41G U43A has a self-cleavage of 0.28. Variant U41G U43C has a self-cleavage of 0.33. Work on G42U A56G yielded a self-cleavage of 0.49. In the case of G42U A56U, the self-cleavage is reported as 0.48. Variant G42A U49A has a self-cleavage of 0.21. For U41G U69A, the self-cleavage was 0.36. In the case of U41G U69G, the self-cleavage is reported as 0.22. U41G U69C gave a self-cleavage of 0.19. With U41G A45G the self-cleavage was 0.25. Variant U41G A45U has a self-cleavage of 0.17. In the case of G42C U49C, the self-cleavage is reported as 0.1. Work on G42A G63U yielded a self-cleavage of 0.35. For U41G A64G, the self-cleavage was 0.26. U41G A64U showed a self-cleavage of 0.14. With U41C U78A the self-cleavage was 1.13. In the case of U41C U78C, the self-cleavage is reported as 1.06. For U41C U78G, the self-cleavage was 1.23. U41C U49C gave a self-cleavage of 0.5. Variant U41C U49A has a self-cleavage of 0.89.
